Tests used:
ACADSB (human) = ACADSB (human) (UniProt P45954); experiment: BioID-MS +ONC201
ADCK3 (human) = ADCK3 (human) (UniProt Q8NI60); experiment: BioID-MS +ONC201
CDK5RAP1 (human) = CDK5RAP1 (human) (UniProt Q96SZ6); experiment: BioID-MS +ONC201
CPOX (human) = CPOX (human) (UniProt P36551); experiment: BioID-MS +ONC201
ERAL1 (human) = ERAL1 (human) (UniProt O75616); experiment: BioID-MS +ONC201
IBA57 (human) = IBA57 (human) (UniProt Q5T440); experiment: BioID-MS +ONC201
IDE (human) = IDE (human) (UniProt P14735); experiment: BioID-MS +ONC201
LARS2 (human) [1] = molecular target: LARS2 (human) (UniProt Q15031); experiment: BioID-MS +ONC201
MRPL12 (human) = MRPL12 (human) (UniProt P52815); experiment: BioID-MS +ONC201
NDUFAF4 (human) = NDUFAF4 (human) (UniProt Q9P032); experiment: BioID-MS +ONC201
NME4 (human) [2] = molecular target: NME4 (human) (UniProt O00746); experiment: BioID-MS +ONC201
PRKCA (human) = PRKCA (human) (UniProt P17252); experiment: BioID-MS +ONC201
SSBP1 (human) = SSBP1 (human) (UniProt Q04837); experiment: BioID-MS +ONC201
TST (human) = TST (human) (UniProt Q16762); experiment: BioID-MS +ONC201
ACAD10 (human) = ACAD10 (human) (UniProt Q6JQN1); experiment: BioID-MS
ACSS1 (human) = ACSS1 (human) (UniProt Q9NUB1); experiment: BioID-MS
AIFM1 (human) = AIFM1 (human) (UniProt O95831); experiment: BioID-MS
ATPAF1 (human) = ATPAF1 (human) (UniProt Q5TC12); experiment: BioID-MS
C12orf10 (human) = C12orf10 (human) (UniProt Q9HB07); experiment: BioID-MS
ETFB (human) = ETFB (human) (UniProt P38117); experiment: BioID-MS
FASTKD2 (human) = FASTKD2 (human) (UniProt Q9NYY8); experiment: BioID-MS
FASTKD5 (human) = FASTKD5 (human) (UniProt Q7L8L6); experiment: BioID-MS
FOXRED1 (human) = FOXRED1 (human) (UniProt Q96CU9); experiment: BioID-MS
GBAS (human) = GBAS (human) (UniProt O75323); experiment: BioID-MS
GCDH (human) = GCDH (human) (UniProt Q92947); experiment: BioID-MS
GUF1 (human) = GUF1 (human) (UniProt Q8N442); experiment: BioID-MS
HADH (human) = HADH (human) (UniProt Q16836); experiment: BioID-MS
HSD17B10 (human) = HSD17B10 (human) (UniProt Q99714); experiment: BioID-MS
LARS2 (human) [3] = molecular target: LARS2 (human) (UniProt Q15031); experiment: BioID-MS
LETM1 (human) = LETM1 (human) (UniProt O95202); experiment: BioID-MS
METTL17 (human) = METTL17 (human) (UniProt Q9H7H0); experiment: BioID-MS
MICU2 (human) = MICU2 (human) (UniProt Q8IYU8); experiment: BioID-MS
MRPL14 (human) = MRPL14 (human) (UniProt Q6P1L8); experiment: BioID-MS
MRPL19 (human) = MRPL19 (human) (UniProt P49406); experiment: BioID-MS
MRPL44 (human) = MRPL44 (human) (UniProt Q9H9J2); experiment: BioID-MS
MRPL47 (human) = MRPL47 (human) (UniProt Q9HD33); experiment: BioID-MS
MRPL48 (human) = MRPL48 (human) (UniProt Q96GC5); experiment: BioID-MS
MRPL54 (human) = MRPL54 (human) (UniProt Q6P161); experiment: BioID-MS
MRPS17 (human) = MRPS17 (human) (UniProt Q9Y2R5); experiment: BioID-MS
MTRF1L (human) = MTRF1L (human) (UniProt Q9UGC7); experiment: BioID-MS
NDUFA12 (human) = NDUFA12 (human) (UniProt Q9UI09); experiment: BioID-MS
NDUFA2 (human) = NDUFA2 (human) (UniProt O43678); experiment: BioID-MS
NDUFS2 (human) = NDUFS2 (human) (UniProt O75306); experiment: BioID-MS
NDUFS8 (human) = NDUFS8 (human) (UniProt O00217); experiment: BioID-MS
NDUFV2 (human) = NDUFV2 (human) (UniProt P19404); experiment: BioID-MS
NFUl (human) = NFUl (human) (UniProt Q9UMS0); experiment: BioID-MS
NME4 (human) [4] = molecular target: NME4 (human) (UniProt O00746); experiment: BioID-MS
PDE12 (human) = PDE12 (human) (UniProt Q6L8Q7); experiment: BioID-MS
PIN1 (human) = PIN1 (human) (UniProt Q13526); experiment: BioID-MS
POLG2 (human) = POLG2 (human) (UniProt Q9UHN1); experiment: BioID-MS
POLRMT (human) = POLRMT (human) (UniProt O00411); experiment: BioID-MS
RNMTL1 (human) = RNMTL1 (human) (UniProt Q9HC36); experiment: BioID-MS
SDHB (human) = SDHB (human) (UniProt P21912); experiment: BioID-MS
SUCLA2 (human) = SUCLA2 (human) (UniProt Q9P2R7); experiment: BioID-MS
T1MM44 (human) = T1MM44 (human) (UniProt O43615); experiment: BioID-MS
TARS2 (human) = TARS2 (human) (UniProt Q9BW92); experiment: BioID-MS

FlagBirA-ClpP (WT) (from UniProt P06709 1-321; Q16740 57-277) (enzyme)
Log2 Fold change (vs control) (ACADSB (human)): -1.76 log2 | Log2 Fold change (vs control) (ADCK3 (human)): -1.91 log2 | Log2 Fold change (vs control) (CDK5RAP1 (human)): -4.17 log2 | Log2 Fold change (vs control) (CPOX (human)): -2.12 log2 | Log2 Fold change (vs control) (ERAL1 (human)): -6.19 log2 | Log2 Fold change (vs control) (IBA57 (human)): -1.05 log2 | Log2 Fold change (vs control) (IDE (human)): -1.97 log2 | Log2 Fold change (vs control) (LARS2 (human) [1]): -0.14 log2 | Log2 Fold change (vs control) (MRPL12 (human)): -3.32 log2 | Log2 Fold change (vs control) (NDUFAF4 (human)): -1.11 log2 | Log2 Fold change (vs control) (NME4 (human) [2]): -1.16 log2 | Log2 Fold change (vs control) (PRKCA (human)): -3.58 log2 | Log2 Fold change (vs control) (SSBP1 (human)): 0.07 log2 | Log2 Fold change (vs control) (TST (human)): -5.55 log2

FlagBirA-ClpP (Y118A) (from UniProt P06709 1-321; Q16740 57-277) (enzyme)
Log2 Fold change (vs control) (ACAD10 (human)): -4.09 log2 | Log2 Fold change (vs control) (ACSS1 (human)): -1.46 log2 | Log2 Fold change (vs control) (AIFM1 (human)): -2.32 log2 | Log2 Fold change (vs control) (ATPAF1 (human)): 0.59 log2 | Log2 Fold change (vs control) (C12orf10 (human)): -3.75 log2 | Log2 Fold change (vs control) (ETFB (human)): 0.4 log2 | Log2 Fold change (vs control) (FASTKD2 (human)): 0.71 log2 | Log2 Fold change (vs control) (FASTKD5 (human)): 1.05 log2 | Log2 Fold change (vs control) (FOXRED1 (human)): -4.09 log2 | Log2 Fold change (vs control) (GBAS (human)): -0.38 log2 | Log2 Fold change (vs control) (GCDH (human)): 1 log2 | Log2 Fold change (vs control) (GUF1 (human)): 0.38 log2 | Log2 Fold change (vs control) (HADH (human)): 0.8 log2 | Log2 Fold change (vs control) (HSD17B10 (human)): 0.72 log2 | Log2 Fold change (vs control) (LARS2 (human) [3]): 0.1 log2 | Log2 Fold change (vs control) (LETM1 (human)): 1.06 log2 | Log2 Fold change (vs control) (METTL17 (human)): -3.58 log2 | Log2 Fold change (vs control) (MICU2 (human)): -0.18 log2 | Log2 Fold change (vs control) (MRPL14 (human)): 0 log2 | Log2 Fold change (vs control) (MRPL19 (human)): -0.97 log2 | Log2 Fold change (vs control) (MRPL44 (human)): 1.13 log2 | Log2 Fold change (vs control) (MRPL47 (human)): -1.94 log2 | Log2 Fold change (vs control) (MRPL48 (human)): 0.15 log2 | Log2 Fold change (vs control) (MRPL54 (human)): -3 log2 | Log2 Fold change (vs control) (MRPS17 (human)): -0.55 log2 | Log2 Fold change (vs control) (MTRF1L (human)): 0.51 log2 | Log2 Fold change (vs control) (NDUFA12 (human)): -1.02 log2 | Log2 Fold change (vs control) (NDUFA2 (human)): -0.23 log2 | Log2 Fold change (vs control) (NDUFS2 (human)): 0.1 log2 | Log2 Fold change (vs control) (NDUFS8 (human)): 0.19 log2 | Log2 Fold change (vs control) (NDUFV2 (human)): -0.47 log2 | Log2 Fold change (vs control) (NFUl (human)): -0.32 log2 | Log2 Fold change (vs control) (NME4 (human) [4]): -0.42 log2 | Log2 Fold change (vs control) (PDE12 (human)): 0.03 log2 | Log2 Fold change (vs control) (PIN1 (human)): -3.81 log2 | Log2 Fold change (vs control) (POLG2 (human)): -0.89 log2 | Log2 Fold change (vs control) (POLRMT (human)): 0.57 log2 | Log2 Fold change (vs control) (RNMTL1 (human)): -0.2 log2 | Log2 Fold change (vs control) (SDHB (human)): -0.6 log2 | Log2 Fold change (vs control) (SUCLA2 (human)): -0.06 log2 | Log2 Fold change (vs control) (T1MM44 (human)): -0.12 log2 | Log2 Fold change (vs control) (TARS2 (human)): -0.25 log2
